In US20220089730A1 (IMAGINAB, published 2022):

B1: IAB2M γ1 EH1 (other)
chain: DIVMTQSPSSLSASVGDRVTITCKASQDVGTAVDWYQQKPGKAPKLLIYWASTRHTGVPDRFTGSGSGTDFTLTISSLQPEDFADYFCQQYNSYPLTFGGGTKLEIKGSTSGGGSGGGSGGGGSSEVQLVQSGAEVKKPGASVKISCKTSGYTFTEYTIHWVKQASGKGLEWIGNINPNNGGTTYNQKFEDRATLTVDKSTSTAYMELSSLRSEDTAVYYCAAGWNFDYWGQGTTVTVSSEPKSCDKTHTCPPCGGGSSGGGSGGQPREPQVYTLPPSRDELTKNQVSLTCLVKGFYPSDIAVEWESNGQPENNYKTTPPVLDSDGSFFLYSKLTVDKSRWQQGNVFSCSVMHEALHNHYTQKSLSLSPGK
notes: Anti-PSMA minibody: homodimer of scFv-hinge-CH3
B2: IAB2M γ1 EH2 (other)
chain: DIVMTQSPSSLSASVGDRVTITCKASQDVGTAVDWYQQKPGKAPKLLIYWASTRHTGVPDRFTGSGSGTDFTLTISSLQPEDFADYFCQQYNSYPLTFGGGTKLEIKGSTSGGGSGGGSGGGGSSEVQLVQSGAEVKKPGASVKISCKTSGYTFTEYTIHWVKQASGKGLEWIGNINPNNGGTTYNQKFEDRATLTVDKSTSTAYMELSSLRSEDTAVYYCAAGWNFDYWGQGTTVTVSSEPKSSDKTHTCPPCGGGSSGGGSGGQPREPQVYTLPPSRDELTKNQVSLTCLVKGFYPSDIAVEWESNGQPENNYKTTPPVLDSDGSFFLYSKLTVDKSRWQQGNVFSCSVMHEALHNHYTQKSLSLSPGK
notes: as for B1
B3: IAB2M γ2 EH1 (other)
chain: DIVMTQSPSSLSASVGDRVTITCKASQDVGTAVDWYQQKPGKAPKLLIYWASTRHTGVPDRFTGSGSGTDFTLTISSLQPEDFADYFCQQYNSYPLTFGGGTKLEIKGSTSGGGSGGGSGGGGSSEVQLVQSGAEVKKPGASVKISCKTSGYTFTEYTIHWVKQASGKGLEWIGNINPNNGGTTYNQKFEDRATLTVDKSTSTAYMELSSLRSEDTAVYYCAAGWNFDYWGQGTTVTVSSERKCCVECPPCPGGGSSGGGSGGQPREPQVYTLPPSREEMTKNQVSLTCLVKGFYPSDIAVEWESNGQPENNYKTTPPMLDSDGSFFLYSKLTVDKSRWQQGNVFSCSVMHEALHNHYTQKSLSLSPGK
notes: as for B1

Legend:
[1] = biological target: T1, PSMA (Prostate-Specific Membrane Antigen), glutamate carboxypeptidase 2 (Homo sapiens, UniProt Q04609 1-750); experiment: flow cytometry (FACS) on LNCaP-AR cells and on C4-2 XCL cells
T1 construct: also called FOLH1; target antigen expressed on LNCaP-AR cells
T1 sequence (Q04609 whole entry): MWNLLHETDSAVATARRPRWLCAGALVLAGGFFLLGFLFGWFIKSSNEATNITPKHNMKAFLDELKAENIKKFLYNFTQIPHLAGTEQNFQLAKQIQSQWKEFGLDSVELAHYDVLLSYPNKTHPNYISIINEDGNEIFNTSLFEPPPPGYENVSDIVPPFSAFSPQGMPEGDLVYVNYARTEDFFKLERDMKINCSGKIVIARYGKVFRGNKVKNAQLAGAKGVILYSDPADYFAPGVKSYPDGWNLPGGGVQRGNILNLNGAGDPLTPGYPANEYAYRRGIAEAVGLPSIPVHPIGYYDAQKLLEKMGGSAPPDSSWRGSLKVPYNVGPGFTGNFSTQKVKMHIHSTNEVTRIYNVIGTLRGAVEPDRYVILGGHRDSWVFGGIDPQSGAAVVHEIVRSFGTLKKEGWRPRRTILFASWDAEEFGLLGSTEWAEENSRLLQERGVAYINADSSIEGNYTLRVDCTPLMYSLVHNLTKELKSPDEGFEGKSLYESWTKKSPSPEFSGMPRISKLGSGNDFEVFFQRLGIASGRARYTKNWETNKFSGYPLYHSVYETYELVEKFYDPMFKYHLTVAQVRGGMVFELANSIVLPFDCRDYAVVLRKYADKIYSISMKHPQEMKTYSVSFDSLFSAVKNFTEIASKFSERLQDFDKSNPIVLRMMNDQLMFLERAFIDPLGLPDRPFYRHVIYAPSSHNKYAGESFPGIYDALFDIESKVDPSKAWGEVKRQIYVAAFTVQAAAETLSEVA

[2] = biological target: T1, PSMA (Prostate-Specific Membrane …); experiment: flow cytometry (FACS) on C4-2 XCL cells

Binder | binding result [1] | binding result [2]
B1 | binds | 
B2 | binds | 
B3 |  | binds
